Laboratory results taken from PMC9272835.

Target: trastuzumab
Test: BLI; trastuzumab (5 µg/mL) captured on anti-human IgG Fc (AHC) biosensors; serial dilutions of the masks or HER2 in solution; DPBS, 0.1% BSA, 0.02% Tween 20; global fit to a 1:1 model

B1: dAb (VHH)
VHH: EVQLVESGGGLVQAGDSLTLSCAASGRTFSSVAMGWFRQAPGKERKFVANISWNGDSTYYTDSVKGRFTISRDNAKNTVYLQMSSLKPEDTAVYYCAADVRWTGDGHRADYWGQGTQVTVSS
- Kd: 0.192 nM
- half-life of dissociation: 3.3 h
- koff: 5.76e-05 s⁻¹
